Measured values: publication PMC4226571, “The E6AP Binding Pocket of the HPV16 E6 Oncoprotein Provides a Docking Site for a Small Inhibitory Peptide Unrelated to E6AP, Indicating Druggability of E6” (PLoS ONE, 2014)

Key:
[1] = target: pep11** fused to the GAL4 DNA binding domain; experiment: mammalian two-hybrid; conditions: HeLa cells; read off a plot
[2] = target: E6APpep fused to the GAL4 DNA binding domain; experiment: mammalian two-hybrid; conditions: HeLa cells; read off a plot

Substance | percent of parent [1] | percent of parent [2]
wildtype HPV16 E6 fused to the VP16 transcriptional activation domain (from UniProt P03126) H126E | 98% | 63%
wildtype HPV16 E6 fused to the VP16 transcriptional activation domain (from UniProt P03126) L67A | 46% | 48%
wildtype HPV16 E6 fused to the VP16 transcriptional activation domain (from UniProt P03126) R129A | 190% | 290%
wildtype HPV16 E6 fused to the VP16 transcriptional activation domain (from UniProt P03126) D120A | 100% | 120%
wildtype HPV16 E6 fused to the VP16 transcriptional activation domain (from UniProt P03126) K122A | 170% | 110%
wildtype HPV16 E6 fused to the VP16 transcriptional activation domain (from UniProt P03126) T133A | 130% | 150%
wildtype HPV16 E6 fused to the VP16 transcriptional activation domain (from UniProt P03126) D64A | 60% | 64%
wildtype HPV16 E6 fused to the VP16 transcriptional activation domain (from UniProt P03126) H126A | 110% | 80%
wildtype HPV16 E6 fused to the VP16 transcriptional activation domain (from UniProt P03126) D64H | 57% | 64%
wildtype HPV16 E6 fused to the VP16 transcriptional activation domain (from UniProt P03126) L119E | 100% | 88%
wildtype HPV16 E6 fused to the VP16 transcriptional activation domain (from UniProt P03126) I128A | 17% | 52%
wildtype HPV16 E6 fused to the VP16 transcriptional activation domain (from UniProt P03126) R129E | 120% | 110%
wildtype HPV16 E6 fused to the VP16 transcriptional activation domain (from UniProt P03126) I23Q | 70% | 66%
wildtype HPV16 E6 fused to the VP16 transcriptional activation domain (from UniProt P03126) R102E | 10% | 43%
wildtype HPV16 E6 fused to the VP16 transcriptional activation domain (from UniProt P03126) D120K | 91% | 100%
wildtype HPV16 E6 fused to the VP16 transcriptional activation domain (from UniProt P03126) K108A | 140% | 93%
wildtype HPV16 E6 fused to the VP16 transcriptional activation domain (from UniProt P03126) R48A | 110% | 98%
wildtype HPV16 E6 fused to the VP16 transcriptional activation domain (from UniProt P03126) H24R | 57% | 79%
wildtype HPV16 E6 fused to the VP16 transcriptional activation domain (from UniProt P03126) R39A | 89% | 78%
wildtype HPV16 E6 fused to the VP16 transcriptional activation domain (from UniProt P03126) I128E | 10% | 48%
